Laboratory results from patent US20260049138A1 (Chugai, published 2026).
Positions count from the first letter of the chain named. Names and notes keep the numbering of the source.

B1: CE115HA000 Y97D one-arm antibody (antibody, human IgG1, kappa, L234A L235A, N297A, name in Kabat numbering)
heavy: QVQLVESGGGVVQPGRSLRLSCAASGFTFSNAWMHWVRQAPGKGLEWVAQIKAKSNNYATYYAESVKGRFTISRDDSKNSLYLQMNSLKTEDTAVYYCRYVHDGAYYGVDAWGQGTTVTVSSASTKGPSVFPLAPSSKSTSGGTAALGCLVKDYFPEPVTVSWNSGALTSGVHTFPAVLQSSGLYSLSSVVTVPSSSLGTQTYICNVNHKPSNTKVDKKVEPKSCDKTHTCPPCPAPEAAGGPSVFLFPPKPKDTLMISRTPEVTCVVVDVSHEDPEVKFNWYVDGVEVHNAKTKPREEQYASTYRVVSVLTVLHQDWLNGKEYKCKVSNKALPAPIEKTISKAKGQPREPQVYTLPPSRCELTKNQVSLSCAVKGFYPSDIAVEWESNGQPENNYKTTPPVLDSDGSFFLVSKLTVDKSRWQQGNVFSCSVMHEALHNHYTQKSLSLSPDYKDDDDK
chain: EPKSSDKTHTCPPCPAPELLGGPSVFLFPPKPKDTLMISRTPEVTCVVVDVSHEDPEVKFNWYVDGVEVHNAKTKPREEQYNSTYRVVSVLTVLHQDWLNGKEYKCKVSNKALPAPIEKTISKAKGQPREPQVCTLPPSRDELTKNQVSLWCLVKGFYPSDIAVEWESNGQPENNYKTTPPVLDSDGSFFLYSKLTVDKSRWQQGNVFSCSVMHEALHNRYTQKSLSLSP
light: DIVMTQSPLSLPVTPGEPASISCRSSQSLVHSNRNTYLHWYQQKPGQAPRLLIYKVSNRFSGVPDRFSGSGSGTDFTLKISRVEAEDVGVYYCGQGTQVPYTFGQGTKLEIKRTVAAPSVFIFPPSDEQLKSGTASVVCLLNNFYPREAKVQWKVDNALQSGNSQESVTEQDSKDSTYSLSSTLTLSKADYEKHKVYACEVTHQGLSSPVTKSFNRGEC
B2: CE115HA000 Y100V one-arm antibody (antibody, human IgG1, kappa, L234A L235A, N297A, name in Kabat numbering)
heavy: B1 heavy with D103Y, Y106V
chain: B1 chain
light: B1 light
B3: CE115HA000 Y100aG one-arm antibody (antibody, human IgG1, kappa, L234A L235A, N297A, name in Kabat numbering)
heavy: B1 heavy with D103Y, Y107G
chain: B1 chain
light: B1 light
B4: CE115HA000 Y100aK one-arm antibody (antibody, human IgG1, kappa, L234A L235A, N297A, name in Kabat numbering)
heavy: B1 heavy with D103Y, Y107K
chain: B1 chain
light: B1 light
B5: CE115HA000 Y100K one-arm antibody (antibody, human IgG1, kappa, L234A L235A, N297A, name in Kabat numbering)
heavy: B1 heavy with D103Y, Y106K
chain: B1 chain
light: B1 light
B6: CE115HA000 Y100aA one-arm antibody (antibody, human IgG1, kappa, L234A L235A, N297A, name in Kabat numbering)
heavy: B1 heavy with D103Y, Y107A
chain: B1 chain
light: B1 light
B7: CE115HA000 Y97S one-arm antibody (antibody, human IgG1, kappa, L234A L235A, N297A, name in Kabat numbering)
heavy: B1 heavy with D103S
chain: B1 chain
light: B1 light
B8: CE115HA000 Y100aF one-arm antibody (antibody, human IgG1, kappa, L234A L235A, N297A, name in Kabat numbering)
heavy: B1 heavy with D103Y, Y107F
chain: B1 chain
light: B1 light
B9: CE115HA000 Y100G one-arm antibody (antibody, human IgG1, kappa, L234A L235A, N297A, name in Kabat numbering)
heavy: B1 heavy with D103Y, Y106G
chain: B1 chain
light: B1 light
B10: CE115HA000 Y100D one-arm antibody (antibody, human IgG1, kappa, L234A L235A, N297A, name in Kabat numbering)
heavy: B1 heavy with D103Y, Y106D
chain: B1 chain
light: B1 light
B11: CE115HA000 Y100P one-arm antibody (antibody, human IgG1, kappa, L234A L235A, N297A, name in Kabat numbering)
heavy: B1 heavy with D103Y, Y106P
chain: B1 chain
light: B1 light
B12: CE115HA000 Y100Q one-arm antibody (antibody, human IgG1, kappa, L234A L235A, N297A, name in Kabat numbering)
heavy: B1 heavy with D103Y, Y106Q
chain: B1 chain
light: B1 light
B13: CE115HA000 Y100aD one-arm antibody (antibody, human IgG1, kappa, L234A L235A, N297A, name in Kabat numbering)
heavy: B1 heavy with D103Y, Y107D
chain: B1 chain
light: B1 light
B14: CE115HA000 Y100aQ one-arm antibody (antibody, human IgG1, kappa, L234A L235A, N297A, name in Kabat numbering)
heavy: B1 heavy with D103Y, Y107Q
chain: B1 chain
light: B1 light
B15: CE115HA000 Y100S one-arm antibody (antibody, human IgG1, kappa, L234A L235A, N297A, name in Kabat numbering)
heavy: B1 heavy with D103Y, Y106S
chain: B1 chain
light: B1 light
B16: CE115HA000 Y97P one-arm antibody (antibody, human IgG1, kappa, L234A L235A, N297A, name in Kabat numbering)
heavy: B1 heavy with D103P
chain: B1 chain
light: B1 light
B17: CE115HA000 Y97G one-arm antibody (antibody, human IgG1, kappa, L234A L235A, N297A, name in Kabat numbering)
heavy: B1 heavy with D103G
chain: B1 chain
light: B1 light
B18: CE115HA000 Y100W one-arm antibody (antibody, human IgG1, kappa, L234A L235A, N297A, name in Kabat numbering)
heavy: B1 heavy with D103Y, Y106W
chain: B1 chain
light: B1 light
B19: CE115HA000 Y97R one-arm antibody (antibody, human IgG1, kappa, L234A L235A, N297A, name in Kabat numbering)
heavy: B1 heavy with D103R
chain: B1 chain
light: B1 light
B20: CE115HA000 Y100A one-arm antibody (antibody, human IgG1, kappa, L234A L235A, N297A, name in Kabat numbering)
heavy: B1 heavy with D103Y, Y106A
chain: B1 chain
light: B1 light
B21: CE115HA000 Y100L one-arm antibody (antibody, human IgG1, kappa, L234A L235A, N297A, name in Kabat numbering)
heavy: B1 heavy with D103Y, Y106L
chain: B1 chain
light: B1 light
B22: CE115HA000 Y100aL one-arm antibody (antibody, human IgG1, kappa, L234A L235A, N297A, name in Kabat numbering)
heavy: B1 heavy with D103Y, Y107L
chain: B1 chain
light: B1 light

What follows are binders tested against T1, CD3ε homodimer protein (human, UniProt P07766 23-126, limits assumed, sulfo-tag or biotin label in the ECL assays; amine-coupled to the chip in SPR) (assay: SPR Biacore T200; CD3ε homodimer on CM4 chip;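 also: Single-residue variant antibodies injected as analyte over CD3ε homodimer immobilized by amine coupling, run at 25 °C in HBS-EP+ buffer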).
T1 construct: also called human CD3ε homodimer protein; CD3 (CD3ε)
T1 sequence (P07766 23-126 limits assumed): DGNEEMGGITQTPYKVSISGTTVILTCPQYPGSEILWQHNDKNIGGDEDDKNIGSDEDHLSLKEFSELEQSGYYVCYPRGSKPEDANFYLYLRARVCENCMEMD

| ratio of amounts bound Z=Y/X (altered form / CE115HA000) | Binder |
| --- | --- |
| 0.24 | B1 |
| 0.6 | B2 |
| 1.23 | B3 |
| 0.9 | B4 |
| 1.07 | B5 |
| 0.62 | B6 |
| 0.18 | B7 |
| 0.87 | B8 |
| 1.07 | B9 |
| 0.52 | B10 |
| 0.48 | B11 |
| 0.8 | B12 |
| 0.31 | B13 |
| 0.56 | B14 |
| 0.81 | B15 |
| 0.11 | B16 |
| 0.18 | B17 |
| 1.03 | B18 |
| 0.27 | B19 |
| 0.9 | B20 |
| 0.7 | B21 |
| 0.48 | B22 |
